Article PMC9482650, “Quantitative fragmentomics allow affinity mapping of interactomes” (Nature Communications, 2022)

T1: SNTG1, Q9NSN8
T1 sequence (Q9NSN8 52-150, limits assumed, looked up): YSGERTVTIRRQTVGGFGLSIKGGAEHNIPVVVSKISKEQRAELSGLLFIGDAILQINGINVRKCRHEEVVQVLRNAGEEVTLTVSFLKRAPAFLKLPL

T2: APBA2_1, Q99767
T2 sequence (Q99767 563-664, limits assumed, looked up): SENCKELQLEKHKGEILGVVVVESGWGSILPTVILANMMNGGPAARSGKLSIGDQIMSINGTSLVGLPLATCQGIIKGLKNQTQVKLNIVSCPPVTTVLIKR

T3: GRIP1_2, Q9Y3R0
T3 sequence (Q9Y3R0 145-248, limits assumed, looked up): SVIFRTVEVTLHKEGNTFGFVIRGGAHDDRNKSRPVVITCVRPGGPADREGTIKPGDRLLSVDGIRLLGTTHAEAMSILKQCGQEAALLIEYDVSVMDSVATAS

T4: GRIP1_3, Q9Y3R0
T4 sequence (Q9Y3R0 247-346, limits assumed, looked up): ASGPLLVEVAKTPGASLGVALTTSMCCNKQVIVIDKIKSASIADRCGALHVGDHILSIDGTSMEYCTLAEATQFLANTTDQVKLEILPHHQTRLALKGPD

T5: ARHGEF11, O15085
T5 sequence (O15085 42-136, limits assumed, looked up): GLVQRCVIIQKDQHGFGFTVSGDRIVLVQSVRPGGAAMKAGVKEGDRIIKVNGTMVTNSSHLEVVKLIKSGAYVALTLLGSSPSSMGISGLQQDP

T6: RADIL, Q96JH8
T6 sequence (Q96JH8 971-1071, limits assumed, looked up): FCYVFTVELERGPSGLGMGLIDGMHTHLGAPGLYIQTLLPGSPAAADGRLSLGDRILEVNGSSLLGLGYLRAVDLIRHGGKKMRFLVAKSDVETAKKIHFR

T7: NHERF3_3, Q5T2W1
T7 sequence (Q5T2W1 238-333, limits assumed, looked up): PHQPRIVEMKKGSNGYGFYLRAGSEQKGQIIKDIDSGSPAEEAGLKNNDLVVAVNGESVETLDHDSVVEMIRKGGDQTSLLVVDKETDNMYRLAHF

T8: TJP3_3, O95049
T8 sequence (O95049 375-456, limits assumed, looked up): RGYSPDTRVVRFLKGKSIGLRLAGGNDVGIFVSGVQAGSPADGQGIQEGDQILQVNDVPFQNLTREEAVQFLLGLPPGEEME

T9: LIN7C, Q9NUP9
T9 sequence (Q9NUP9 88-185, limits assumed, looked up): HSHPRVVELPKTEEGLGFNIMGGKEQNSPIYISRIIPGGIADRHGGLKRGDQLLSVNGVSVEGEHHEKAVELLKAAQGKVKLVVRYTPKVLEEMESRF

T10: NHERF3_1, Q5T2W1
T10 sequence (Q5T2W1 4-100, limits assumed, looked up): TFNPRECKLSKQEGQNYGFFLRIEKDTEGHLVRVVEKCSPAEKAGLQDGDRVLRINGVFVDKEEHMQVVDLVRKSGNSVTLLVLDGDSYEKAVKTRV

T11: SYNJ2BP, P57105
T11 sequence (P57105 8-110, limits assumed, looked up): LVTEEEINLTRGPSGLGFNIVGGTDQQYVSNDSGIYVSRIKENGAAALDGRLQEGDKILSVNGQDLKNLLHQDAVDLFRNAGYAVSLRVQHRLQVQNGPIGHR

T12: RHPN1, Q8TCX5
T12 sequence (Q8TCX5 508-602, limits assumed, looked up): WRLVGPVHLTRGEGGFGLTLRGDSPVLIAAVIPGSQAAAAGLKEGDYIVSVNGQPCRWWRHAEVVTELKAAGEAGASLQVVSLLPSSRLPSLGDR


Assays:
Test in all cases: holdup assay
Design in all cases: key: below the threshold = too weak to quantify, mostly under pKd 3.1 to 4
Conditions in all cases: plain residues with an end cap or a label only (N-terminal biotin on a linker: ado-ado)
SNTG1, Q9NSN8 = target: T1, SNTG1, Q9NSN8
HTRA1, Q92743 = target: HTRA1, Q92743
Sequence of HTRA1, Q92743 (Q92743 360-477): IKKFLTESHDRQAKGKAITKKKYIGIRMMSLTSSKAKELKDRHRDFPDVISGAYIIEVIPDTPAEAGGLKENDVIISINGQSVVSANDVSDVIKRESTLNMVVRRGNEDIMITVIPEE

PDZRN4_1, Q6ZMN7 = target: PDZRN4_1, Q6ZMN7
Sequence of PDZRN4_1, Q6ZMN7 (Q6ZMN7 213-318): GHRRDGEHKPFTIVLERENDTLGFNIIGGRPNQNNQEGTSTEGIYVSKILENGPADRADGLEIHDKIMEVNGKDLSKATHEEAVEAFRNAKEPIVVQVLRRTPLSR

APBA2_1, Q99767 = target: T2, APBA2_1, Q99767
Inadl_2, Q8NI35 = target: Inadl_2, Q8NI35
Sequence of Inadl_2, Q8NI35 (Q8NI35 238-335): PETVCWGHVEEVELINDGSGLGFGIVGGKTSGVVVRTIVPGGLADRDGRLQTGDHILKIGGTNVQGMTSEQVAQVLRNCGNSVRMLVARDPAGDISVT

CASK, O14936 = target: CASK, O14936
Sequence of CASK, O14936 (O14936 487-570): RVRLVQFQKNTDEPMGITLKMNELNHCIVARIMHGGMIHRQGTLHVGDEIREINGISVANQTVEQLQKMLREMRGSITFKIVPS

GRID2IP_1, A4D2P6 = target: GRID2IP_1, A4D2P6
Sequence of GRID2IP_1, A4D2P6 (A4D2P6 1-87): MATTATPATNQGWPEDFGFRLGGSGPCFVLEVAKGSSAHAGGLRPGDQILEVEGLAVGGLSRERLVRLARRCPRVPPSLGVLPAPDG

Inadl_10, Q8NI35 = target: Inadl_10, Q8NI35
Sequence of Inadl_10, Q8NI35 (Q8NI35 1673-1763): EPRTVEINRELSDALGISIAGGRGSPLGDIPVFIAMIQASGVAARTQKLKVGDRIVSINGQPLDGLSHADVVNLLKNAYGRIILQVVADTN

GRIP1_2, Q9Y3R0 = target: T3, GRIP1_2, Q9Y3R0
GRIP1_3, Q9Y3R0 = target: T4, GRIP1_3, Q9Y3R0
ARHGEF11, O15085 = target: T5, ARHGEF11, O15085
RADIL, Q96JH8 = target: T6, RADIL, Q96JH8
MAGI1_1, Q96QZ7 = target: MAGI1_1, Q96QZ7
Sequence of MAGI1_1, Q96QZ7 (Q96QZ7 1-106): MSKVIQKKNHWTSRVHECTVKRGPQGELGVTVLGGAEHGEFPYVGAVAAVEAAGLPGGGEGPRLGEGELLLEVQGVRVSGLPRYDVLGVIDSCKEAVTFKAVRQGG

DLG2_3, Q15700 = target: DLG2_3, Q15700
NHERF3_3, Q5T2W1 = target: T7, NHERF3_3, Q5T2W1
TJP3_3, O95049 = target: T8, TJP3_3, O95049
LIN7C, Q9NUP9 = target: T9, LIN7C, Q9NUP9
DLG2_2, Q15700 = target: DLG2_2, Q15700
NHERF3_1, Q5T2W1 = target: T10, NHERF3_1, Q5T2W1
GRIP2_6, Q9C0E4 = target: GRIP2_6, Q9C0E4
Sequence of GRIP2_6, Q9C0E4 (Q9C0E4 648-740): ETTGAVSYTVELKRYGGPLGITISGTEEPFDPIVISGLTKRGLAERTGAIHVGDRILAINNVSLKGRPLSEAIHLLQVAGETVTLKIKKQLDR

SYNJ2BP, P57105 = target: T11, SYNJ2BP, P57105
IL16_4, Q14005 = target: IL16_4, Q14005
Sequence of IL16_4, Q14005 (Q14005 1229-1329): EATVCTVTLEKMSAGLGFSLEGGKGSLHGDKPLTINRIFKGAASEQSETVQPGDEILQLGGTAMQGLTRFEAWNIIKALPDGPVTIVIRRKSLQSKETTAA

ARHGEF12, Q9NZN5-2 = target: ARHGEF12, Q9NZN5-2
Sequence of ARHGEF12, Q9NZN5-2 (Q9NZN5 other isoform, or with tags, fused parts or gaps): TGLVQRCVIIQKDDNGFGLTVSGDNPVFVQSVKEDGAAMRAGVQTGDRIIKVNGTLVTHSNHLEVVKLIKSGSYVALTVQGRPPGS

TJP1_2, Q07157 = target: TJP1_2, Q07157
Sequence of TJP1_2, Q07157 (Q07157 181-274): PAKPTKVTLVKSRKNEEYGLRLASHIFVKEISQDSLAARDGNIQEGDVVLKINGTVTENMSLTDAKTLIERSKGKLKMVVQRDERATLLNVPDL

LNX1_2, Q8TBB1 = target: LNX1_2, Q8TBB1
Sequence of LNX1_2, Q8TBB1 (Q8TBB1 371-470): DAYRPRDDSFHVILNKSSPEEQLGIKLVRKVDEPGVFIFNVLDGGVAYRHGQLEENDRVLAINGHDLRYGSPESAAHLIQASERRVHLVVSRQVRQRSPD

RHPN1, Q8TCX5 = target: T12, RHPN1, Q8TCX5

Row | Binder | pKd (SNTG1, Q9NSN8) | pKd (HTRA1, Q92743) | pKd (PDZRN4_1, Q6ZMN7) | pKd (APBA2_1, Q99767) | pKd (Inadl_2, Q8NI35) | pKd (CASK, O14936) | pKd (GRID2IP_1, A4D2P6) | pKd (Inadl_10, Q8NI35) | pKd (GRIP1_2, Q9Y3R0) | pKd (GRIP1_3, Q9Y3R0) | pKd (ARHGEF11, O15085) | pKd (RADIL, Q96JH8) | pKd (MAGI1_1, Q96QZ7) | pKd (DLG2_3, Q15700) | pKd (NHERF3_3, Q5T2W1) | pKd (TJP3_3, O95049) | pKd (LIN7C, Q9NUP9) | pKd (DLG2_2, Q15700) | pKd (NHERF3_1, Q5T2W1) | pKd (GRIP2_6, Q9C0E4) | other results
1 | TMQMSLKDLL [GLA, P06280] | 3.5 | 3.74 | below the threshold | below the threshold | below the threshold | below the threshold | below the threshold | below the threshold | 3.5 | below the threshold | 3.99 | below the threshold | below the threshold | 3.52 | below the threshold | below the threshold | below the threshold | 3.62 | 4.34 | below the threshold | pKd (SYNJ2BP, P57105): below the threshold; pKd (IL16_4, Q14005): 3.69; pKd (ARHGEF12, Q9NZN5-2): below the threshold; pKd (TJP1_2, Q07157): below the threshold; pKd (LNX1_2, Q8TBB1): below the threshold; pKd (RHPN1, Q8TCX5): 3.79
2 | PMESGICTIV [TTC24, A2A3L6] | 4.06 | 5.07 | below the threshold | below the threshold | 3.76 | below the threshold | below the threshold | 3.75 | below the threshold | below the threshold | 4.85 | 5.38 | below the threshold | below the threshold | below the threshold | below the threshold | below the threshold | 4.87 | 4.02 | below the threshold | pKd (SYNJ2BP, P57105): 3.79; pKd (IL16_4, Q14005): 3.67; pKd (ARHGEF12, Q9NZN5-2): 4.47; pKd (TJP1_2, Q07157): 3.56; pKd (LNX1_2, Q8TBB1): 4.37; pKd (RHPN1, Q8TCX5): 4.85
3 | RALRASESGI [ADGRE5, P48960] | below the threshold | below the threshold | below the threshold | below the threshold | below the threshold | below the threshold | below the threshold | below the threshold | below the threshold | below the threshold | below the threshold | below the threshold | below the threshold | below the threshold | below the threshold | below the threshold | 4.07 | below the threshold | below the threshold | below the threshold | pKd (SYNJ2BP, P57105): 3.79; pKd (IL16_4, Q14005): below the threshold; pKd (ARHGEF12, Q9NZN5-2): below the threshold; pKd (TJP1_2, Q07157): below the threshold; pKd (LNX1_2, Q8TBB1): below the threshold; pKd (RHPN1, Q8TCX5): below the threshold
4 | GCQGETEDVL [PTH2R, P49190] | below the threshold | 4.14 | below the threshold | below the threshold | below the threshold | below the threshold | below the threshold | below the threshold | below the threshold | below the threshold | below the threshold | below the threshold | below the threshold | below the threshold | below the threshold | below the threshold | below the threshold | below the threshold | 3.98 | below the threshold | pKd (SYNJ2BP, P57105): below the threshold; pKd (IL16_4, Q14005): below the threshold; pKd (ARHGEF12, Q9NZN5-2): below the threshold; pKd (TJP1_2, Q07157): below the threshold; pKd (LNX1_2, Q8TBB1): below the threshold; pKd (RHPN1, Q8TCX5): below the threshold
